Measurements reported in patent US20230167458A1, “FORSKOLIN-INDUCIBLE PROMOTERS AND HYPOXIA-INDUCIBLE PROMOTERS” (ASKLEPIOS BIOPHARMACEUTICAL, INC., priority 2020, published 2023).

Legend:
HEK293-T = assay: Luciferase expression in normoxia vs 24 h hypoxia, transiently transfected HEK293-T; assay type: cell-based, human
Protocol: HEK293-T are seeded at a density of 20%. Once they reached a confluence between 60 and 80%, the media is changed with DMEM (#21885-025—Thermo Scientific) supplemented with 10% FBS (Gibco, 26140). After 3 hours, the cells were transfected by a transfection mix. The transfection mix is prepared by adding DNA ([…] per 6 well plate) and PEI 25 kDA (#23966-1—Polyscience) in a ratio of 1:3 in sterile DPBS (#14190169—ThermoFisher Scientific). After mixing, the transfection mix is incubated at room temperature for 30 minutes and then added directly to the cells. After 16 to 18 h post transfection, the media is changed to DMEM+2% FBS. The transfected DNA was one of the vectors where the promoter constructs (RTV-015, HYBT, RTV-016, HV3C) or a control promoter (CMV-IE) were used to drive luciferase expression and β-galactosidase containing pcDNA6 plasmid. The β-galactosidase containing plasmid was used as internal control for transfection efficiency (Thermofisher, V22020).
(§1) After transfection the cells were incubated for 24 hrs in normoxic conditions (20% oxygen). Induction of the promoters was assessed by using luciferase activity after 24 hrs in normoxia or hypoxia (5% oxygen, 10% carbon dioxide and 85% nitrogen). Hypoxia was achieved by gas displacement in a sealed hypoxia chamber.
Luciferase activity was measured using LARII (Dual Luciferase Reporter 1000 assay system, Promega, E1980).
Media was removed from the cells at the respective time point (0, 3, 5, 24 hrs after induction). The cells were washed once in 300 μl of DPBS. Cells were lysed by adding 100 μl of passive lysis buffer to the cells and incubation with rocking for 15 minutes. The cell debris was pelleted by centrifugation of the plate at max speed in a benchtop centrifuge for 1 min. 10 μl of supernatant was pipetted into white 96-well plate and luminescence measured by addition of 50 μl of LARII substrate.
β-galactosidase activity was measured as per manufacturer's instructions (Mammalian βGalactosidase Assay Kit, 75707/75710, Thermo Scientific) using 25 μl of lysate. 25 μl of lysate was transferred into a microplate well and mixed with 25 μl of β-galactosidase Assay Reagent, equilibrated to room temperature. The mixture was incubated at 37° C. for 30 min and absorbance measured at 405 nm.
Luciferase readouts were normalised to β-galactosidase to produce normalised relative luminometer units (RLUs).

CHO-GSK1SV = assay: Luciferase expression in normoxia vs 24 h hypoxia, transiently transfected CHO-GS suspension cells; assay type: cell-based, chinese hamster; details: transient CHO_GS
Protocol: 40 ml of cells were grown in a 250 ml vented Erlenmeyer flask (Sigma-Aldrich CLS431144) at 37° C., 20% O2, 8% CO2 with agitation at 100 rpm. Cells were seeded as at 300,000 cells/ml.
One day before transfection, the cells were counted using a haemocytometer and split to 500,000 cells/ml.
On the day of transfection, the cells are seeded to 1,000,000 cells/ml in 500 μl of appropriate medium (Thermofisher, CD-CHO 10743029) in a 24 well plate. […] of DNA per well was then added to 10 μl of OptiMem medium (Thermofisher; 11058021) and incubated for 5 minutes at room temperature.
Concurrently, 0.625 μl of Freestyle Max reagent (Thermofisher, 16447100) was made up to 10 μl by addition of OptiMem and incubated for 5 minutes at room temperature. After this incubation, both mixes were added to the same tube and incubated at room temperature for 25-30 minutes. The DNA/Max reagent mix (20 μl/well) was then added directly to the cells and the cells incubated at 37 C, 8% CO2 with agitation at 100 rpm.
The transfected DNA was one of the vectors where the promoter constructs (RTV-015, HYBT, RTV-016, HV3C) or a control promoter (CMV-IE) were used to drive luciferase expression and β-galactosidase containing pcDNA6 plasmid. The β-galactosidase containing plasmid was used as internal control for transfection efficiency (Thermofisher, V22020).
as §1, with “chamber. Luciferase activity was measured as described above.” for “chamber.”

CHO-GSK1SV cell line = assay: SEAP expression and cell number in normoxia vs 24 h hypoxia, stably transfected CHO-GS-KSV1; assay type: cell-based, chinese hamster; details: stably integrated CHO-GSK1SV
Protocol: Cell suspensions of 6×10^5 cells per mL are incubated on an orbital shaker set at 8% CO2, 20% O2, 37° C., 85% relative humidity and 140 rpm overnight. 2.86×10^7 cells were centrifuged at 200 g for 3 minutes. Media is then aspirated and cell pellet resuspended in 2 mL fresh CD-CHO media to obtain a concentration of 1.43×10^7 cells per mL. 700 μL of cell suspension was added to each of two electroporation cuvettes each containing […] of linearised DNA in 100 μL of sterile TE buffer (Thermofisher, 12090015). Each cuvette was electroporated, delivering a single pulse of 300V, […] with resistance to infinity. Immediately after delivery of pulse electroplated cells were transferred to Erlenmeyer 125 mL flask containing 20 mL of CD-CHO media pre-warmed to 37° C. Electroporated cells from two cuvettes are combined into a single 125 mL flask to generate one pool of cells. Cells are cultured on an orbital shaker set at 8% CO2, 20% 02, 37° C., 85% relative humidity and 140 rpm. Cells are transferred to fresh CD-CHO media 24 hours after transfection and cell cultures monitored and given fresh CD-CHO media every 2-4 days. Usually after about 10-14 days cell numbers will be high enough to start passaging. Cells were selected at 14 days and then expanded. Induction was performed once doubling time had returned to approx. 24 hrs. The cells assayed in this example were at passage number 15, 17, 19 and 21.
The transfected DNA was pXC-17.4 expression vector (Lonza Biologics plc) where one of the promoter constructs (RTV-015, HYBT, RTV-016, HV3C) or a control promoter (CMV-IE) have been cloned upstream of the SEAP gene, which had been cloned into the multiple cloning site within the vector expression cassette. Promoters were closed into the pXC-17.4 vector using Gibson assembly. The pXC-17.4 expression vector is designed for making stable cell lines in the CHO-GSK1SV cell line as it contains the […] gene which has been knocked out of the cell line. Therefore, selection of cells in glutamine drop-out medium will select for cells that have stably integrated the plasmid.
Stably transfected CHO-GS cells were seeded at 500,000 cells/ml and allowed to grow for 24 hrs, at this point the cells were counted and placed under hypoxic conditions as previously described. After 24 hrs, the cell numbers and the expression of SEAP was measured.
SEAP Reporter Gene Assay, chemiluminescent (Roche, CAT #11 779 842 001) was used to measured SEAP activity as per manufacturers protocol. All reagents and samples were fully pre-equilibrated at room temperature. Culture supernatant was collected from the stably transfected CHO-GS at the specific time points (0 h and 24 h). The supernatant was diluted 1:4 in dilution buffer and heat treated at 65° C. for 30 minutes. The heat-treated sample was then centrifuged for 30 s at maximum speed. 50 μl of the heat-treated sample was then added to 5 μl of inactivation buffer and incubated for 5 min at room temperature. 50 μl of substrate reagent was then added and incubated for 10 min at room temperature. The signal is then read at 477 nm and compared to a calibration curve. SEAP expression was normalized against cell number to ensure that the increase in activity was not due to increased cell numbers and was true induction. The result of this experiment can be seen in FIG. 16 and FIG. 17.

Row | Molecule | luciferase activity in normoxia (HEK293-T) | luciferase activity in normoxia (CHO-GSK1SV) | SEAP activity in normoxia (CHO-GSK1SV cell line) | inducibility after 24 hours in hypoxia (rank) (CHO-GSK1SV cell line)
1 | RTV-016: synthetic hypoxia-inducible promoter, SEQ ID NO: 82; 6 HRE2 elements spaced by 20 bp and CMV minimal promoter (nucleic acid, Synp-RTV-016, 6 HRE2 elements spaced by 20 bp and CMV minimal promoter) DNA: CTGCACGTAGATGATGCGTAGCTAGTAGTCTGCACGTAGATGATGCGTAGCTAGTAGTCTGCACGTAGATGATGCGTAGCTAGTAGTCTGCACGTAGATGATGCGTAGCTAGTAGTCTGCACGTAGATGATGCGTAGCTAGTAGTCTGCACGTAGTAGTCGTATGCTGATGCGCAGTTAGCGTAGCTGAGGTACCGTCGACGATATCGGATCCAGGTCTATATAAGCAGAGCTCGTTTAGTGAACCGTCAGATCGCCTAGATACGCCATCCACGCTGTTTTGACCTCCATAGAAGATCGCCACC | almost no luciferase activity | almost no luciferase activity | almost no SEAP activity | 
2 | HYBT: synthetic hypoxia-inducible promoter, SEQ ID NO: 84/86; 4 HRE3 elements and YB-TATA minimal promoter (nucleic acid, Synp-HYBT, 4 HRE3 elements and YB-TATA minimal promoter) DNA: GATCTTTGTATTTAATTAAGACCTTGAGTACGTGCGTCTCTGCACGTATGGCGATTAAGACCTTGAGTACGTGCGTCTCTGCACGTATGGCGATTAAGACCTTGAGTACGTGCGTCTCTGCACGTATGGCGATTAAGACCTTGAGTACGTGCGTCTCTGCACGTATGGCGATTAATCCATATGCTCTAGAGGGTATATAATGGGGGCCACTAGTCTACTACCAGAAAGCTTGGTACCGAGCTCGGATCCAGCCACC | almost no luciferase activity | almost no luciferase activity | almost no SEAP activity | highest
